Test results published in publication PMC4705661, “Tetramerization and interdomain flexibility of the replication initiation controller YabA enables simultaneous binding to multiple partners” (Nucleic Acids Research, 2015).

Legend:
[1] = biological target: the molecule itself; assay: SEC-MALS; YabA loaded at 2.5 mg.ml^-1 (100 μl) on Superdex 200 HR 10/30; 50 mM Tris pH 8.0, 150 mM NaCl
[2] = biological target: the molecule itself; assay: SEC-MALS; YabA1-58 and YabA70-119 loaded at 5 mg.ml^-1 (100 μl) on a Superdex 75 column; 50 mM Tris pH 8.0, 150 mM NaCl
[3] = biological target: the molecule itself; assay: crystal structure; form I crystals, space group P3(2)21, 2.7 Å; 20% PEG 3350, 100 mM Bis-Tris propane pH 6.5, 200 mM potassium thiocyanate

B1: YabA (full length, purified recombinant) (natural protein)
chain: not shown
notes: expressed from pET151/D-TOPO; also called recombinant YabA; full length YabA; source: E. coli BL21 (DE3), purified (HisTrap, TEV cleavage, Superdex 200)
[1]
  stoichiometry N: 4

B2: YabA^1–58 (domain or fragment, B. subtilis, UniProt P37542 1-58, looked up)
chain: MDKKELFDTVINLEEQIGSLYRQLGDLKQHIGEMIEENHHLQLENKHLRKRLDDTTQQ
notes: YabA, B. subtilis strain 168, residues 1-58; tag removed by HRV 3C protease; also called NTD fragment; N-terminal fragment YabA1-58; not shown: His-tag, N-terminal, cleaved
[2]
  stoichiometry N: 4

B3: YabA^1–62 (crystallized N-terminal domain fragment) (domain or fragment, B. subtilis, UniProt P37542 1-62, looked up)
chain: MDKKELFDTVINLEEQIGSLYRQLGDLKQHIGEMIEENHHLQLENKHLRKRLDDTTQQIEKF
notes: YabA, B. subtilis strain 168; form I crystals (2.7 Å) grew from the purified YabA/DnaN complex, form II crystals from YabA alone; two chains per asymmetric unit, tetramer by crystal symmetry; also called YabA NTD; YabA-NTD; source: E. coli BL21 (DE3), purified; fragment left by proteolysis during crystallization
[3]
  stoichiometry N: 4
